Patent US20250011363A1, “OPTIMIZED SHORTENED PEPTIDE THAT BINDS TO ACETYLCHOLINE RECEPTOR, AND USE THEREOF” (SKINMED CO., LTD., priority 2021, published 2025)

B1: 6mer-2-1003 (peptide)
peptide: KPEWKR
B2: 6mer-2-1007 (peptide)
peptide: RHTNKK
B3: 6mer-2-1005 (peptide)
peptide: RFKARR
B4: 6mer-2-1011 (peptide)
peptide: RAEFRR
B5: 6mer-2-1009 (peptide)
peptide: KINPRK
B6: 6mer-2-1004 (peptide)
peptide: RDTHKR
B7: 6mer-2-1008 (peptide)
peptide: RAWKKR
B8: 6mer-2-1006 (peptide)
peptide: RATMRR
B9: 6mer-2-1000 (peptide)
peptide: KCHDKK
B10: 6mer-2-1012 (peptide)
peptide: KASAKK
B11: 6mer-2-1010 (peptide)
peptide: RANHKK
B12: 6mer-2-1001 (peptide)
peptide: RKKFKK
B13: 6mer-2-1002 (peptide)
peptide: RCNDKR
B14: 6mer-2-999 (peptide)
peptide: RATIKR
B15: 6mer-2-981 (peptide)
peptide: RCEIRK
B16: 6mer-2-994 (peptide)
peptide: KYCIKK
B17: 6mer-2-975 (peptide)
peptide: KKTMKK
B18: 6mer-2-970 (peptide)
peptide: KDDVRR
B19: 6mer-2-987 (peptide)
peptide: RCHPKK
B20: 6mer-2-959 (peptide)
peptide: RTNARK
B21: 6mer-2-992 (peptide)
peptide: RMHFRR
B22: 6mer-2-957 (peptide)
peptide: RDTHRR
B23: 6mer-2-984 (peptide)
peptide: KDMWKK
B24: 6mer-2-977 (peptide)
peptide: REMKRK
B25: 6mer-2-960 (peptide)
peptide: RDCVKR
B26: 6mer-2-962 (peptide)
peptide: KKSNRK
B27: 6mer-2-996 (peptide)
peptide: RHDARK
B28: 6mer-2-966 (peptide)
peptide: KEDAKR
B29: 6mer-2-989 (peptide)
peptide: KAHNKR
B30: 6mer-2-958 (peptide)
peptide: KFKARK
B31: 6mer-2-974 (peptide)
peptide: RFDDRR
B32: 6mer-2-973 (peptide)
peptide: KCPIKK
B33: 6mer-2-976 (peptide)
peptide: RTTGKK
B34: 6mer-2-969 (peptide)
peptide: KATHKR
B35: 6mer-2-980 (peptide)
peptide: KESGKR
B36: 6mer-2-963 (peptide)
peptide: KAKHRR
B37: 6mer-2-972 (peptide)
peptide: KAMFRR
B38: 6mer-2-988 (peptide)
peptide: KMCEKK
B39: 6mer-2-986 (peptide)
peptide: KNWARR
B40: 6mer-2-990 (peptide)
peptide: RKKMKR
B41: 6mer-2-971 (peptide)
peptide: KEMFRK
B42: 6mer-2-991 (peptide)
peptide: KCHFRR
B43: 6mer-2-997 (peptide)
peptide: KISFKK
B44: 6mer-2-968 (peptide)
peptide: RHWEKK
B45: 6mer-2-961 (peptide)
peptide: KNTKKR
B46: 6mer-2-978 (peptide)
peptide: KEPHRR
B47: 6mer-2-998 (peptide)
peptide: KEMWKK
B48: 6mer-2-993 (peptide)
peptide: RHDVKK
B49: 6mer-2-982 (peptide)
peptide: RMHAKK
B50: 6mer-2-985 (peptide)
peptide: REMNKR
B51: 6mer-2-967 (peptide)
peptide: RTSNKK
B52: 6mer-2-965 (peptide)
peptide: KPWFKR
B53: 6mer-2-995 (peptide)
peptide: KFWEKK
B54: 6mer-2-979 (peptide)
peptide: KKAFKK
B55: 6mer-2-964 (peptide)
peptide: KCEDRK
B56: 6mer-2-983 (peptide)
peptide: RTWHRR

target: acetylcholine receptor; assay: SPR, peptide at 10 uM on immobilized AchR

For B1, which Binding affinity (RU) is on record?
Its Binding affinity (RU) is 42 RU.

Which Binding affinity (RU) does the source give for B2 here?
Its Binding affinity (RU) is 42 RU.

B3 was tested. Which Binding affinity (RU) did it give?
Its Binding affinity (RU) is 23 RU.

How did the Binding affinity (RU) turn out when B4 was run?
Its Binding affinity (RU) is 22 RU.

B5 was tested. Which Binding affinity (RU) did it give?
The Binding affinity (RU) was 34 RU.

B6 was tested. Which Binding affinity (RU) did it give?
Its Binding affinity (RU) is 38 RU.

With B7 as the binder, how does the Binding affinity (RU) read?
The Binding affinity (RU) was 38 RU.

Which Binding affinity (RU) does the source give for B8 here?
The Binding affinity (RU) was 30 RU.

With B9 as the binder, how does the Binding affinity (RU) read?
Its Binding affinity (RU) is 41 RU.

With B10 as the binder, how does the Binding affinity (RU) read?
The Binding affinity (RU) was 30 RU.

B11 was tested. Which Binding affinity (RU) did it give?
The Binding affinity (RU) was 36 RU.

Which Binding affinity (RU) does the source give for B12 here?
The Binding affinity (RU) was 37 RU.

B13 was tested. Which Binding affinity (RU) did it give?
Its Binding affinity (RU) is 42 RU.

Which Binding affinity (RU) does the source give for B14 here?
Its Binding affinity (RU) is 31 RU.

target: acetylcholine receptor; assay: SPR, receptor immobilised on chip, peptide at 10 uM

How did the Binding affinity (RU) turn out when B15 was run?
The Binding affinity (RU) was 32 RU.

How did the Binding affinity (RU) turn out when B16 was run?
Its Binding affinity (RU) is 41 RU.

For B17, which Binding affinity (RU) is on record?
The Binding affinity (RU) was 38 RU.

How did the Binding affinity (RU) turn out when B18 was run?
Its Binding affinity (RU) is 27 RU.

How did the Binding affinity (RU) turn out when B19 was run?
Its Binding affinity (RU) is 22 RU.

For B20, which Binding affinity (RU) is on record?
Its Binding affinity (RU) is 35 RU.

B21 was tested. Which Binding affinity (RU) did it give?
Its Binding affinity (RU) is 33 RU.

Which Binding affinity (RU) does the source give for B22 here?
The Binding affinity (RU) was 40 RU.

B23 was tested. Which Binding affinity (RU) did it give?
Its Binding affinity (RU) is 43 RU.

For B24, which Binding affinity (RU) is on record?
Its Binding affinity (RU) is 30 RU.

How did the Binding affinity (RU) turn out when B25 was run?
The Binding affinity (RU) was 29 RU.

With B26 as the binder, how does the Binding affinity (RU) read?
Its Binding affinity (RU) is 30 RU.

With B27 as the binder, how does the Binding affinity (RU) read?
Its Binding affinity (RU) is 40 RU.

B28 was tested. Which Binding affinity (RU) did it give?
Its Binding affinity (RU) is 41 RU.

For B29, which Binding affinity (RU) is on record?
Its Binding affinity (RU) is 22 RU.

With B30 as the binder, how does the Binding affinity (RU) read?
Its Binding affinity (RU) is 28 RU.

For B31, which Binding affinity (RU) is on record?
Its Binding affinity (RU) is 38 RU.

For B32, which Binding affinity (RU) is on record?
The Binding affinity (RU) was 41 RU.

Which Binding affinity (RU) does the source give for B33 here?
The Binding affinity (RU) was 26 RU.

With B34 as the binder, how does the Binding affinity (RU) read?
Its Binding affinity (RU) is 33 RU.

With B35 as the binder, how does the Binding affinity (RU) read?
The Binding affinity (RU) was 34 RU.

With B36 as the binder, how does the Binding affinity (RU) read?
The Binding affinity (RU) was 37 RU.

With B37 as the binder, how does the Binding affinity (RU) read?
The Binding affinity (RU) was 38 RU.

For B38, which Binding affinity (RU) is on record?
Its Binding affinity (RU) is 41 RU.

With B39 as the binder, how does the Binding affinity (RU) read?
The Binding affinity (RU) was 27 RU.

With B40 as the binder, how does the Binding affinity (RU) read?
Its Binding affinity (RU) is 41 RU.

With B41 as the binder, how does the Binding affinity (RU) read?
The Binding affinity (RU) was 29 RU.

Which Binding affinity (RU) does the source give for B42 here?
Its Binding affinity (RU) is 30 RU.

B43 was tested. Which Binding affinity (RU) did it give?
Its Binding affinity (RU) is 30 RU.

How did the Binding affinity (RU) turn out when B44 was run?
Its Binding affinity (RU) is 39 RU.

B45 was tested. Which Binding affinity (RU) did it give?
Its Binding affinity (RU) is 21 RU.

Which Binding affinity (RU) does the source give for B46 here?
Its Binding affinity (RU) is 28 RU.

How did the Binding affinity (RU) turn out when B47 was run?
The Binding affinity (RU) was 43 RU.

For B48, which Binding affinity (RU) is on record?
The Binding affinity (RU) was 29 RU.

How did the Binding affinity (RU) turn out when B49 was run?
The Binding affinity (RU) was 38 RU.

For B50, which Binding affinity (RU) is on record?
The Binding affinity (RU) was 34 RU.

B51 was tested. Which Binding affinity (RU) did it give?
The Binding affinity (RU) was 35 RU.

B52 was tested. Which Binding affinity (RU) did it give?
Its Binding affinity (RU) is 36 RU.

With B53 as the binder, how does the Binding affinity (RU) read?
The Binding affinity (RU) was 38 RU.

Which Binding affinity (RU) does the source give for B54 here?
Its Binding affinity (RU) is 22 RU.

Which Binding affinity (RU) does the source give for B55 here?
Its Binding affinity (RU) is 41 RU.

B56 was tested. Which Binding affinity (RU) did it give?
The Binding affinity (RU) was 37 RU.
